T1: Abp1 SH3 (ABP1_YEAST), P15891
T1 chain: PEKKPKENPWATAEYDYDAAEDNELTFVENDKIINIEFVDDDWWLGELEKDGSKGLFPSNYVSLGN


Biological target: T1, Abp1 SH3 (ABP1_YEAST), P15891
Experiment: SPOT array

| Binder | normalised SPOT signal, Boehringer light units (BLU); mean over the file's lines of this peptide |
| --- | --- |
| GMTKTPETSPPKRP [YDR200C 28-41] | 169 |
| GGKYQGFGSTPAKP [YDL226C 208-221] | 56.7 |
| GKSIYFSDIVPSKP [YJL186W 204-217] | 108 |
| GKLVDLTPASMKP [YGR196C 563-575] | 41.6 |
| GVVLRVMVLKPKKP [YNR036C 60-73] | 131 |
| GIKTRKFVFNPPKP [YOR065W 294-307] | 57.2 |
| GNPLYTTPKTPPRP [YKR028W 953-966] | 292 |
| GSVWSKTPPEIKP [YOL100W 451-463] | 87.2 |
| GVRNIMIPFPNRP [YOR093C 1314-1326] | 2310 |
| GKSRRKTNTKPSRP [YPL137C 17-30] | 65.2 |
| GLKYAQSPKFSKP [YKL212W 605-617] | 131 |
| GIFNALPPPNTKP [YDL046W 25-37] | 136 |
| GKDKSRPPRPPPKP [YIL095W 743-756] | 41900 |
| GVNYVDYYPLPDKP [YGL137W 186-199] | 122 |
| GSTAVSFPSSGKP [YLR313C 322-334] | 108 |
| GTKSQESPLNKKP [YNL042W 210-222] | 58.6 |
| GTSASHSPRPFRP [YLL029W 25-37] | 134 |
| GKLLKSYPTSARP [YGR238C 700-712] | 204 |
| GVFMNWSPRFDRP [YLR023C 375-387] | 176 |
| GKIELTSPITSKP [YEL019C 178-190] | 73.6 |
| GVNLDPSVKIPAKP [YIR007W 25-38] | 112 |

| Binder | normalised SPOT signal, Boehringer light units (BLU); mean over the file's lines of this peptide |
| --- | --- |
| GTKKIAGVQVPAKP [YPL107W 67-80] | 106 |
| GLQGDQFPRQQRP [YDR240C 296-308] | 124 |
| GNIVEIAPLIPKKP [YDR080W 593-606] | 318 |
| GISHTRMPTESRP [YKL165C 94-106] | 80 |
| GWYLTGAPNILKP [YDL203C 543-555] | 102 |
| GRAPRETPEWRRP [YGL034C 16-28] | 2720 |
| GKDIPFFPSSEKP [YDR443C 544-556] | 140 |
| GQFSPENPNEFKP [YPR160W 817-829] | 60.8 |
| GSSELEEPIAIRP [YHR020W 279-291] | 107 |
| GPQKEEAPKKHRP [YMR076C 1094-1106] | 86.6 |
| GVADPQNSLNPSKP [YOR363C 848-861] | 48.5 |
| GINMKKGFINPRKP [YLL021W 560-573] | 210 |
| GQLANSSSRAPAKP [YDL222C 69-82] | 127 |
| GPAPPPPPRASRP [YOR181W 384-396] | 8770 |
| GNGMYKIPSNTKP [YPL116W 648-660] | 499 |
| GSSPQPLPELIKP [YGR270W 682-694] | 55.9 |
| GRLTPGLPRSYKP [YPR111W 45-57] | 866 |
| GLNDSTEPVLHKP [YIL044C 131-143] | 135 |
| GKNKMHEPKNGRP [YOR006C 4-16] | 224 |
| GSKSGPPPRPKKP [YNL138W 349-361] | 25200 |
| GTFESKHVVIPFKP [YLR238W 83-96] | 83.5 |
